± gives the standard deviation.
Test: protein stability index of a GFP-peptide fusion (GPS, HEK-293T) (PSI 1-6); higher = more stable
[1] = treatment: DMSO, c terminus: a fixed tail appended
[2] = treatment: MLN4924 1 uM, 8 h, c terminus: a fixed tail appended
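Further: 24-mer peptide tiles fused after GFP, lentivirally expressed, FACS-sorted into six equal bins by GFP/DsRed ratio, decoded by Illumina sequencing, PSI is the read-weighted mean bin number.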

Sequence	protein stability index [1]	protein stability index [2]	protein stability index (treatment: DMSO, c terminus: native)	protein stability index (treatment: MLN4924 1 uM, 8 h, c terminus: native)
VLTEPILIETYTGLMSFIGNRNKL [TPRG1]	2.21 ± 0.36	2.27 ± 0.51	–	–
TEDLCEKPDDEVKETAHDLDVKSP [RIPK4]	5.8 ± 0.26	5.62 ± 0.27	–	–
LASDKTSAGNAPLNEEINIASSDS [C18orf25]	5.48 ± 0.17	5.46 ± 0.16	–	–
SKDCKPPVYLLLELEDKDGLQSAQ [MYBL2]	3.93 ± 0.18	3.87 ± 0.12	–	–
RTTSVRCRGIPRGPVRPAIPPPLS [NEK8]	3.37 ± 0.1	3.64 ± 0.23	–	–
RAASAMQFFTKGYQETISDVLNDA [GCH1]	3.38 ± 0.12	3.53 ± 0.072	–	–
LLGRERDRVQVERDGLAEDLAALK [PRPH]	4.2 ± 0.26	4.37 ± 0.18	–	–
VSSSEQLQSCQAEIIELRRTVNAL [KRT34]	3.02 ± 0.2	2.77 ± 0.3	–	–
APHSQGEYDVYSTFQSHEPEFDYL [PPP2R2C]	4.22 ± 0.19	4.13 ± 0.2	–	–
NTKLRQAERLFENQLVGPESIAHI [APMAP]	3.22 ± 0.12	3.42 ± 0.48	–	–
ARTFGNEARFIRRSCTPNAEVRHE [KMT2E]	3.2 ± 0.51	3.22 ± 0.26	–	–
LVQSSRSEVTELRRVLQGLEIELQ [KRT16]	3.1 ± 0.24	3.08 ± 0.38	–	–
KRFEKQLTQIDGTLSTIEFQREAL [CHMP4C]	3.98 ± 0.17	4 ± 0.27	–	–
ASSWKKQVSHDFLETRFKIQQLLE [FBXO34]	2.89 ± 0.31	2.71 ± 0.41	–	–
TKRSTLIISGVSKVPIAQDELALS [C2CD2L]	3.16 ± 0.17	3.14 ± 0.19	–	–
HIWELSSIKNSLKVAAISESPVAE [PTGFR]	3.11 ± 0.28	3.21 ± 0.39	–	–
EVYYDGQWGTVCDDDFSIHAAHVV [LOXL2]	2.62 ± 0.31	2.6 ± 0.37	–	–
VKRLLRSDAEAVSTRWEVIAEDGT [TAF7L]	3.69 ± 0.3	3.73 ± 0.64	–	–
GELRLGKNLYTNEYVAIKLEPMKS [CSNK1G3]	2.32 ± 0.29	2.27 ± 0.7	–	–
SLEIEEKINKIRWLPQQNAAYFLL [PPP2R2B]	2.34 ± 1.1	2.01 ± 1.1	–	–
PRLHGAKAILDAEPGPRPALQPSP [TBC1D10A]	4.81 ± 0.19	4.94 ± 0.17	–	–
QLQALNRRFQQTQYLALPERAELA [DLX1]	3.05 ± 0.28	3.23 ± 0.085	–	–

Sequence	protein stability index [1]	protein stability index [2]	protein stability index (treatment: DMSO, c terminus: native)	protein stability index (treatment: MLN4924 1 uM, 8 h, c terminus: native)
VCQEVLERSRDVVDDVSVSLRLWD [RHOBTB2]	3.31 ± 0.19	3.44 ± 0.37	–	–
VVIFQREPESKNAPHSQGEYDVYS [PPP2R2C]	2.5 ± 0.23	2.85 ± 0.27	–	–
LGEEWSLHKIYLCQSGYFSSMFSG [GMCL1]	2.72 ± 1.1	3.4 ± 0.97	–	–
THGVGLVLRVEQQPHLPLLSTLAG [SCNN1D]	2.12 ± 0.23	2.17 ± 0.15	–	–
PWDKNPEALAKWAEGRTGFPWIDA [CRY1]	3.08 ± 0.17	3.04 ± 0.2	–	–
SYDELCFLEQRPQSPTLEFLLRNS [EDARADD]	3.1 ± 0.2	3 ± 0.1	–	–
STSFMSSSSSSSSWLTRRAIRPEN [EMD]	3.39 ± 0.35	3.38 ± 0.16	–	–
TIHGLIYNALKLFMEMNQKLFDDC [PPP2R5C]	2.93 ± 0.33	2.89 ± 0.45	–	–
MDVAISNNKKWILSASKDRTMRLW [WDR88]	2.38 ± 0.19	2.35 ± 0.32	–	–
TRKHHCRRCGKCFCDRCCSQKVPL [ZFYVE21]	3.31 ± 0.27	3.58 ± 0.19	–	–
IAIPEWFLSENATVAAETRAVIAW [CPXM2]	2.24 ± 0.25	2.08 ± 0.14	–	–
VINQADVRNNRSIIKQLKDVFERD [PLD5]	3.2 ± 0.2	3.29 ± 0.35	–	–
QKKIGAYDQQIWEKSIEQTQIKGL [PHTF1]	3.76 ± 0.12	3.73 ± 0.22	–	–
EAARNGKMKFVIGNGKNLVDFTFV [NSDHL]	2.17 ± 0.47	2.04 ± 0.35	–	–
VAPPAKQAQQKKAPAKKANSTTTA [BRD3]	5.11 ± 0.26	5.26 ± 0.13	–	–
QEEMAEDPLTYKSRLMVVVKMDSS [RHOBTB2]	3.45 ± 0.27	3.49 ± 0.24	–	–
HQRTHTGEKPFTCHECGKKFSQNS [ZNF75A]	3.14 ± 0.27	3.47 ± 0.33	–	–
DLAEFAKKQPWWRKLFGQESGPSA [FUNDC2]	2.65 ± 0.13	2.58 ± 0.17	–	–
LDPHFVPTELWPQEAVPLGLGLED [TEX19]	5.13 ± 0.3	4.91 ± 0.17	–	–
ISWAFTDRPDLSLTVLPKLQARER [C2CD2L]	2.68 ± 0.28	2.71 ± 0.43	–	–
LWTSFIQSVSYSKLLSVIVWMLML [P2RY14]	3.32 ± 0.53	3.4 ± 0.21	–	–
YHCPGSPDHQVPYGHDYPRAAYQQ [TRAF3IP2]	3.13 ± 0.45	3.5 ± 0.28	–	–

Sequence	protein stability index [1]	protein stability index [2]	protein stability index (treatment: DMSO, c terminus: native)	protein stability index (treatment: MLN4924 1 uM, 8 h, c terminus: native)
FTEYQASAFGNVKLVVHDCPVWDI [RHOBTB3]	2.54 ± 0.72	2.46 ± 0.41	–	–
THLLKQGRSSMGTGLSGGKRPSQE [CRY1]	4.35 ± 0.18	4.53 ± 0.33	–	–
HRRTVKMRKGNTMQQFLQKALEIL [FAM50A]	3.08 ± 0.36	2.77 ± 0.42	–	–
CHLCVNYIEMQTDPANCDYVIVSG [YJU2B]	2.71 ± 0.26	2.57 ± 0.33	–	–
TSALFWEQHDLVYGDWTSGENSDG [CLPTM1]	4.17 ± 0.18	4.34 ± 0.41	–	–
MHPINVRRDPSIPIYGLRQSILLN [C22orf31]	2.33 ± 0.22	2.63 ± 0.51	–	–
HKADSIQGTARTLSPVLESPRDLQ [TNXB]	4.75 ± 0.18	4.9 ± 0.14	–	–
NLSSRWKNWWVRGILTLAMIAFFF [CDS2]	4.15 ± 0.14	4.04 ± 0.15	–	–
ACRANVKSGAIMSALSDTEIQREI [PPFIA4]	3.41 ± 0.29	3.57 ± 0.47	–	–
FLDIDTSAVEKEPARAPPEPPHNL [SERTAD3]	4.84 ± 0.13	4.98 ± 0.45	–	–
TVPKNDADDESETPEELEEEIPVV [GLT8D2]	5.63 ± 0.12	5.53 ± 0.26	–	–
DLCSDVNVCSLLAQTPLHVAAETG [RIPK4]	3.46 ± 0.4	3.21 ± 0.47	–	–
VLTDSEGWILIDRCGKHFGTILNY [KCTD10]	2.37 ± 0.59	2.31 ± 0.2	–	–
AEGTPRSNHSAQDSAVENLLLLSK [IKZF1]	4.67 ± 0.41	4.86 ± 0.95	–	–
KKDILLVNDHLLNFVRERTLDKRW [PDS5B]	2.13 ± 0.26	2.35 ± 0.18	–	–
APSEGSAEAAPELDLFAMKPPETS [SNAP91]	5.39 ± 0.23	5.47 ± 0.19	–	–
LQAKQDGKKDVSHSSPVDLKIPQV [LCOR]	4.94 ± 0.21	4.92 ± 0.06	–	–
GEYPRWDAWSGSNAYHIERLMSFR [CRYBA1]	2.17 ± 0.22	2.41 ± 0.28	–	–
STDSGFCLDSPGPLDSKENLENPM [CDC25A]	5.32 ± 0.12	5.27 ± 0.14	–	–
PPWFEGLESRFQSKSGYLRYSCES [DFFB]	2.51 ± 0.19	2.54 ± 0.2	–	–
RSPTLEPPRGRSEAPDSLNGPLGP [SMG5]	4.89 ± 0.26	4.77 ± 0.055	–	–
HPPPSTPIKLEEGDGCAREYLLP [ADD1]	–	–	5.13 ± 0.2	4.81 ± 0.09

Sequence	protein stability index [1]	protein stability index [2]	protein stability index (treatment: DMSO, c terminus: native)	protein stability index (treatment: MLN4924 1 uM, 8 h, c terminus: native)
SFELLVRFFACPSKATFSRNIMNL [KCNA3]	3.16 ± 0.46	2.96 ± 0.25	–	–
LSRHDKAVQRFCLIGSLSKHESEY [NETO1]	2.72 ± 0.12	2.69 ± 0.072	–	–
AFGYFITACAVIILTIICYLGLPR [SLC29A1]	2.3 ± 0.52	2.32 ± 0.41	–	–
CNSHMPYGYAAQARARERERLAHS [KCNA4]	3.1 ± 0.23	3.13 ± 0.31	–	–
ALWCSGHLNGHAMCQTKHSPWADG [ADAMTS4]	2.48 ± 0.38	2.27 ± 0.47	–	–
KFDVLRAIELFHSYRETRRKEGIV [PTPN9]	2.35 ± 0.079	1.91 ± 0.42	–	–
IYQTLFLNGENSDIKICALGEEWS [GMCL1]	2.26 ± 0.18	2.16 ± 0.19	–	–
HRNQCQYCRLKKCLKVGMRREAVQ [NR2F2]	2.39 ± 0.47	2.57 ± 0.57	–	–
AGALAQGGGPSATEWACILRRKTP [C6orf223]	3.56 ± 0.17	3.75 ± 0.29	–	–
FSGGKSGGNKKSDGVKESSESTNT [CAMK2A]	5.25 ± 0.2	5.36 ± 0.34	–	–
DPSSTKPGTLLKTSPSPERSLLLK [TRIM14]	4.59 ± 0.2	4.67 ± 0.21	–	–
MGDEEKRNRAITARRQHLKSVMLQ [TNNI2]	4.06 ± 0.3	4.12 ± 0.21	–	–
GEDTRLSASEMKQLIDNILEESDI [CIB1]	5.27 ± 0.27	5.26 ± 0.25	–	–
GKLSWGTMARALGRFKLSIPHTHL [WDR88]	2.31 ± 0.28	2.13 ± 0.11	–	–
VLALRNMKNLLFSEMWDIFLVRLL [MFSD9]	2.13 ± 0.44	2.14 ± 0.49	–	–
AIIRERSSCVKILLDHNANIDIQN [ASB7]	2.52 ± 0.4	2.64 ± 0.26	–	–
HITKTVKGGISETRIEKRIVITGD [EPB41L3]	3.85 ± 0.28	3.96 ± 0.12	–	–
MAKFVIRPATAADCSDILRLIKEL [SAT1]	2.04 ± 0.16	2.22 ± 0.22	–	–
VVKFVNFLLVNGFQTAIDIFEDRI [TRAF3IP2]	2.33 ± 0.45	2.83 ± 0.59	–	–
AGPGAAEPLPVERDPAAGAAPFRF [ZNF511]	4.38 ± 0.17	4.64 ± 0.29	–	–
SEEQLQEPITGWRKTVCHNGVLGL [LPCAT4]	3.58 ± 0.45	3.64 ± 0.38	–	–
MLKRPVLLHLHQTAHADEFDCPSE [STEAP1]	3.73 ± 0.29	3.73 ± 0.48	–	–

Reference: the supplement of paper PMC10567573
